Laboratory results taken from patent US20230250154A1 (CYTONICS, published 2023).
Blank lines part the entries; values can stand above or below the binder they belong to.

Experiments:
Test in all cases: cell-based or functional assay
[1] = biological target: T1, Cathepsin G (UniProt P08311 21-244)
T1 sequence (looked up): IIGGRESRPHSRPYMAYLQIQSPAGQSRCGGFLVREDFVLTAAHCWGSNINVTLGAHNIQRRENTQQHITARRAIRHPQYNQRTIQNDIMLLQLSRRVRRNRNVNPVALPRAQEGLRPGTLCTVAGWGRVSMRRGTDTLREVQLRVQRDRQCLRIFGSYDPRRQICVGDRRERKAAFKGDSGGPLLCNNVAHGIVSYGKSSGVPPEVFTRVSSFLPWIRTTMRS

[2] = biological target: MMP3 (human, UniProt P08254 100-477, limits assumed)
Sequence of MMP3 (P08254 100-477 limits assumed): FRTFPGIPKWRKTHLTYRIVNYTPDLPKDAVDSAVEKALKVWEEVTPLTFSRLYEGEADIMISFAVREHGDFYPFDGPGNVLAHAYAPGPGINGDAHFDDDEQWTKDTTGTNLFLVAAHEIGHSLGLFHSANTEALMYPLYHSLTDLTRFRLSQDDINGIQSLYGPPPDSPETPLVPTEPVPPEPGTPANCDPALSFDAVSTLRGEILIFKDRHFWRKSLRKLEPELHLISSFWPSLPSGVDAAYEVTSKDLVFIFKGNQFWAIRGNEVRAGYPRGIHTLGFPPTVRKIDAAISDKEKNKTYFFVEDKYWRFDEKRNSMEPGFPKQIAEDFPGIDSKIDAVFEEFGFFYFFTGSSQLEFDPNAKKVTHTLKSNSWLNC

[3] = biological target: T2, MMP7 (UniProt P09237 95-267, limits assumed)
T2 sequence (looked up): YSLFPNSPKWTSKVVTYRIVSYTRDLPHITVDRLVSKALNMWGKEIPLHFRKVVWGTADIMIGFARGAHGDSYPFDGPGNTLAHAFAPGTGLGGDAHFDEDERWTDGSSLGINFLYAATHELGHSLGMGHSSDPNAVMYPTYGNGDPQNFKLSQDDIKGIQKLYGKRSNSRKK

[4] = biological target: T3, ADAMTS4 (human, UniProt O75173 213-685, limits assumed)
T3 sequence (looked up): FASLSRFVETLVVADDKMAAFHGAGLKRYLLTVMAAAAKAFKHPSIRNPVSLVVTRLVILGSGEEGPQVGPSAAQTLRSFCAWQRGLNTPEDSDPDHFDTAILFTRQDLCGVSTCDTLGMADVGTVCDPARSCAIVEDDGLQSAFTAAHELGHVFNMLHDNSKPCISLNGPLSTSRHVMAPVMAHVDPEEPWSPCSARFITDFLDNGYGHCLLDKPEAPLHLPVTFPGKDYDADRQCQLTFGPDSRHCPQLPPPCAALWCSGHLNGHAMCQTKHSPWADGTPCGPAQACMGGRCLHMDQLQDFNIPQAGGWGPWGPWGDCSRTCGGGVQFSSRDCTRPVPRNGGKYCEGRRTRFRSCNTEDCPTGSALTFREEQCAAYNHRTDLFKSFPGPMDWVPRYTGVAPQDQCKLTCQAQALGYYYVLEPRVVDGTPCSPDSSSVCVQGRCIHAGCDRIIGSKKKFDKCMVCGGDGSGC

[5] = biological target: Elastase
[6] = biological target: T4, MMP1 (human, UniProt P03956 100-469, limits assumed)
T4 sequence (looked up): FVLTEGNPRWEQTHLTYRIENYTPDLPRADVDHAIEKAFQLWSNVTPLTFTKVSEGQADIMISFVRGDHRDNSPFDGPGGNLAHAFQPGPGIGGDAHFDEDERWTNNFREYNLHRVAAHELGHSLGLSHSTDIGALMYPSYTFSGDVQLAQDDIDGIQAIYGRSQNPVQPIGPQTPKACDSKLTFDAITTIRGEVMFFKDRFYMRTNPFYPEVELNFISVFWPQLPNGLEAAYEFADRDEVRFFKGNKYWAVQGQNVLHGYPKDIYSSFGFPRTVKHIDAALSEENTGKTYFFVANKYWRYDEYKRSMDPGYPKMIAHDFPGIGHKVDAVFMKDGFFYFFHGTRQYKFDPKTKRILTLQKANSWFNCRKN

[7] = biological target: T5, MMP2 (human, UniProt P08253 110-660, limits assumed)
T5 sequence (looked up): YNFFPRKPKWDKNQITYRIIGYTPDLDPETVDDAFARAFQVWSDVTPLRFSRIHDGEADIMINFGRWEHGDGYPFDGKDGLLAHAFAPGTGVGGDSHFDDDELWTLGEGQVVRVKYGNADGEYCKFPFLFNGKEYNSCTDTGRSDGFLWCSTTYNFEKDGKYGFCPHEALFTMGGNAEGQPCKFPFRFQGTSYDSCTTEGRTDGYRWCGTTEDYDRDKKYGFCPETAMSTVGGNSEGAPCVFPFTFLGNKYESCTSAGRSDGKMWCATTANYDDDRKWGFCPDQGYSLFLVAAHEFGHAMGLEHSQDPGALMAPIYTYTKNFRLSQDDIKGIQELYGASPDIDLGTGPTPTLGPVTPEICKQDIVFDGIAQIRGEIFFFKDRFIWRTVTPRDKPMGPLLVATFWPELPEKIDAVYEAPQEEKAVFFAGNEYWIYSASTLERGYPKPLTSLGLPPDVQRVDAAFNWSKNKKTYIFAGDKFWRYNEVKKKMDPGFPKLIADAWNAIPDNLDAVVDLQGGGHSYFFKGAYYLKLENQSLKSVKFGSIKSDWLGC

[8] = biological target: MMP13 (human, UniProt P45452 104-471, limits assumed)
[9] = biological target: T6, ADAMTS5 (human, UniProt Q9UNA0 262-622, limits assumed)
T6 sequence (looked up): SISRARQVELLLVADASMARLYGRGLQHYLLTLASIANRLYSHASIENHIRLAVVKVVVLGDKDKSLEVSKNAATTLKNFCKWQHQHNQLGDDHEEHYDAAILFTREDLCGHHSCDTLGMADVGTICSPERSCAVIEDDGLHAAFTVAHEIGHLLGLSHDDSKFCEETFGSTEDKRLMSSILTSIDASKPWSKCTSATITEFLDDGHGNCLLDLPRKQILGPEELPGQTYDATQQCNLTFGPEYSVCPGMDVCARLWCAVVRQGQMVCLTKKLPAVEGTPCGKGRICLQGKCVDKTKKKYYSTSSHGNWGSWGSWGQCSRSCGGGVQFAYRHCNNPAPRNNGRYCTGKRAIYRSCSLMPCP

[10] = biological target: MMP8 (human, UniProt P22894 101-467, limits assumed)
Sequence of MMP8 (P22894 101-467 limits assumed): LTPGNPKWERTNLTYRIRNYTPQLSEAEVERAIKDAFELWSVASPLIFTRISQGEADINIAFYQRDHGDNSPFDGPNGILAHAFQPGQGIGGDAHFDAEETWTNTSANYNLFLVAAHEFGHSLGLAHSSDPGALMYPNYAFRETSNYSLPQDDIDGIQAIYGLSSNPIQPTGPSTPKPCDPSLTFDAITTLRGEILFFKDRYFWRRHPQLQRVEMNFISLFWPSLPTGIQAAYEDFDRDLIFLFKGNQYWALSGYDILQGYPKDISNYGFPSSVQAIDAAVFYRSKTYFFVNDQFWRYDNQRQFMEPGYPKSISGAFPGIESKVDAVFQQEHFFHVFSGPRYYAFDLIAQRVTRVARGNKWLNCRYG

[11] = biological target: MMP9 (human, UniProt P14780 107-707, limits assumed)
Sequence of MMP9 (P14780 107-707 limits assumed): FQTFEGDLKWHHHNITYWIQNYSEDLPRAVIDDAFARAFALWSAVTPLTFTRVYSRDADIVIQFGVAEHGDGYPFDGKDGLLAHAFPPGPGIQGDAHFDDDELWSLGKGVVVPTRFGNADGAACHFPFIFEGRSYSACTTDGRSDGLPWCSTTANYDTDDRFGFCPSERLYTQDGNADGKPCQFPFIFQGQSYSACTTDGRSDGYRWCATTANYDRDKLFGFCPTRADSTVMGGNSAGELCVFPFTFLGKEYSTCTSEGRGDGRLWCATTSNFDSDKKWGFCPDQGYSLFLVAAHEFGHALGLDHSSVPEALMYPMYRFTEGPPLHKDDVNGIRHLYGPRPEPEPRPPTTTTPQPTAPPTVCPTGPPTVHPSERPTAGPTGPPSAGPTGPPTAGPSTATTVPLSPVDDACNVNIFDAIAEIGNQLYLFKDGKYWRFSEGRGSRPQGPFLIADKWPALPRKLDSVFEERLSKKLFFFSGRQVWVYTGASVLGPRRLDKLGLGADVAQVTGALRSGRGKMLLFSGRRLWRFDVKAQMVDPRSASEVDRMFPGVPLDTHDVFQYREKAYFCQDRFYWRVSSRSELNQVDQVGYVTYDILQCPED

Protease Inhibition (% of WT) [1]: 99 % of WT
Protease Inhibition (% of WT) [2]: 169 % of WT
Protease Inhibition (% of WT) [3]: 61 % of WT
Protease Inhibition (% of WT) [4]: 236 % of WT
Protease Inhibition (% of WT) [5]: 67 % of WT
Protease Inhibition (% of WT) [6]: 60 % of WT
Protease Inhibition (% of WT) [7]: 10 % of WT
Protease Inhibition (% of WT) [8]: 66 % of WT
Protease Inhibition (% of WT) [9]: 105 % of WT
Protease Inhibition (% of WT) [10]: 39 % of WT
Protease Inhibition (% of WT) [11]: 14 % of WT
B1: Variant A2M, bait region SEQ ID NO 14 (other)
chain: SVSGKPQYMVLVPSLLHTETTEKGCVLLSYLNETVTVSASLESVRGNRSLFTDLEAENDVLHCVAFAVPKSSSNEEVMFLTVQVKGPTQEFKKRTTVMVKNEDSLVFVQTDKSIYKPGQTVKFRVVSMDENFHPLNELIPLVYIQDPKGNRIAQWQSFQLEGGLKQFSFPLSSEPFQGSYKVVVQKKSGGRTEHPFTVEEFVLPKFEVQVTVPKIITILEEEMNVSVCGLYTYGKPVPGHVTVSICRKYSDASDCHGEDSQAFCEKFSGQLNSHGCFYQQVKTKVFQLKRKEYEMKLHTEAQIQEEGTVVELTGRQSSEITRTITKLSFVKVDSHFRQGIPFFGQVRLVDGKGVPIPNKVIFIRGNEANYYSNATTDEHGLVQFSINTTNVMGTSLTVRVNYKDRSPCYGYQWVSEEHEEAHHTAYLVFSPSKSFVHLEPMSHELPCGHTQTVQAHYILNGGTLLGLKKLSFYYLIMAKGGIVRTGTHGLLVKQEDMKGHFSISIPVKSDIAPVARLLIYAVLPTGDVIGDSAKYDVENCLANKVDLSFSPSQSLPASHAHLRVTAAPQSVCALRAVDQSVLLMKPDAELSASSVYNLLPEKDLTGFPGPLNDQDDEDCINRHNVYINGITYTPVSSTNEKDMYSFLEDMGLKAFTNSKIRKPKMCPQLEHGPEGEGEGEGIPRYLTAENFFGVSEDLVVQISELEGRGSVEEPHTKLRKYFPETWIWDLVVVNSAGVAEVGVTVPDTITEWKAGAFCLSEDAGLGISSTASLRAFQPFFVELTMPYSVIRGEAFTLKATVLNYLPKCIRVSVQLEASPAFLAVPVEKEQAPHCICANGRQTVSWAVTPKSLGNVNFTVSAEALESQELCGTEVPSVPEHGRKDTVIKPLLVEPEGLEKETTFNSLLCPSGGEVSEELSLKLPPNVVEESARASVSVLGDILGSAMQNTQNLLQMPYGCGEQNMVLFAPNIYVLDYLNETQQLTPEIKSKAIGYLNTGYQRQLNYKHYDGSYSTFGERYGRNQGNTWLTAFVLKTFAQARAYIFIDEAHITQALIWLSQRQKDNGCFRSSGSLLNNAIKGGVEDEVTLSAYITIALLEIPLTVTHPVVRNALFCLESAWKTAQEGDHGSHVYTKALLAYAFALAGNQDKRKEVLKSLNEEAVKKDNSVHWERPQKPKAPVGHFYEPQAPSAEVEMTSYVLLAYLTAQPAPTSEDLTSATNIVKWITKQQNAQGGFSSTQDTVVALHALSKYGAATFTRTGKAAQVTIQSSGTFSSKFQVDNNNRLLLQQVSLPELPGEYSMKVTGEGCVYLQTSLKYNILPEKEEFPFALGVQTLPQTCDEPKAHTSFQISLSVSYTGSRSASNMAIVDVKMVSGFIPLKPTVKMLERSNHVSRTEVSSNHVLIYLDKVSNQTLSLFFTVLQDVPVRDLKPAIVKVYDYYETDEFAIAEYNAPCSKDLGNADYKDDDDKGASHHHHHH

Protease Inhibition (% of WT) [1]: 54 % of WT
Protease Inhibition (% of WT) [2]: 189 % of WT
Protease Inhibition (% of WT) [3]: 128 % of WT
Protease Inhibition (% of WT) [4]: 290 % of WT
Protease Inhibition (% of WT) [5]: 97 % of WT
Protease Inhibition (% of WT) [6]: 91 % of WT
Protease Inhibition (% of WT) [7]: 65 % of WT
Protease Inhibition (% of WT) [8]: 76 % of WT
Protease Inhibition (% of WT) [9]: 194 % of WT
Protease Inhibition (% of WT) [10]: 81 % of WT
Protease Inhibition (% of WT) [11]: 71 % of WT
B2: Variant A2M, bait region SEQ ID NO 13 (other)
chain: SVSGKPQYMVLVPSLLHTETTEKGCVLLSYLNETVTVSASLESVRGNRSLFTDLEAENDVLHCVAFAVPKSSSNEEVMFLTVQVKGPTQEFKKRTTVMVKNEDSLVFVQTDKSIYKPGQTVKFRVVSMDENFHPLNELIPLVYIQDPKGNRIAQWQSFQLEGGLKQFSFPLSSEPFQGSYKVVVQKKSGGRTEHPFTVEEFVLPKFEVQVTVPKIITILEEEMNVSVCGLYTYGKPVPGHVTVSICRKYSDASDCHGEDSQAFCEKFSGQLNSHGCFYQQVKTKVFQLKRKEYEMKLHTEAQIQEEGTVVELTGRQSSEITRTITKLSFVKVDSHFRQGIPFFGQVRLVDGKGVPIPNKVIFIRGNEANYYSNATTDEHGLVQFSINTTNVMGTSLTVRVNYKDRSPCYGYQWVSEEHEEAHHTAYLVFSPSKSFVHLEPMSHELPCGHTQTVQAHYILNGGTLLGLKKLSFYYLIMAKGGIVRTGTHGLLVKQEDMKGHFSISIPVKSDIAPVARLLIYAVLPTGDVIGDSAKYDVENCLANKVDLSFSPSQSLPASHAHLRVTAAPQSVCALRAVDQSVLLMKPDAELSASSVYNLLPEKDLTGFPGPLNDQDDEDCINRHNVYINGITYTPVSSTNEKDMYSFLEDMGLKAFTNSKIRKPKMCPQLEHGPRYLTAEGEGEGIPENFFGVSEDLVVQISELEGRGSVEEPHTKLRKYFPETWIWDLVVVNSAGVAEVGVTVPDTITEWKAGAFCLSEDAGLGISSTASLRAFQPFFVELTMPYSVIRGEAFTLKATVLNYLPKCIRVSVQLEASPAFLAVPVEKEQAPHCICANGRQTVSWAVTPKSLGNVNFTVSAEALESQELCGTEVPSVPEHGRKDTVIKPLLVEPEGLEKETTFNSLLCPSGGEVSEELSLKLPPNVVEESARASVSVLGDILGSAMQNTQNLLQMPYGCGEQNMVLFAPNIYVLDYLNETQQLTPEIKSKAIGYLNTGYQRQLNYKHYDGSYSTFGERYGRNQGNTWLTAFVLKTFAQARAYIFIDEAHITQALIWLSQRQKDNGCFRSSGSLLNNAIKGGVEDEVTLSAYITIALLEIPLTVTHPVVRNALFCLESAWKTAQEGDHGSHVYTKALLAYAFALAGNQDKRKEVLKSLNEEAVKKDNSVHWERPQKPKAPVGHFYEPQAPSAEVEMTSYVLLAYLTAQPAPTSEDLTSATNIVKWITKQQNAQGGFSSTQDTVVALHALSKYGAATFTRTGKAAQVTIQSSGTFSSKFQVDNNNRLLLQQVSLPELPGEYSMKVTGEGCVYLQTSLKYNILPEKEEFPFALGVQTLPQTCDEPKAHTSFQISLSVSYTGSRSASNMAIVDVKMVSGFIPLKPTVKMLERSNHVSRTEVSSNHVLIYLDKVSNQTLSLFFTVLQDVPVRDLKPAIVKVYDYYETDEFAIAEYNAPCSKDLGNADYKDDDDKGASHHHHHH
